Experimental data taken from patent publication US20210380714A1 (Amgen, published 2021).
Residue numbers refer to the chain shown, from its start. Values belong to the binder of their own block, whether it stands above or below them.

Legend:
[1] = biological target: T1, Rat MSLN (Rattus norvegicus, UniProt Q9ERA7); test: FACS on 293T cells transiently expressing the orthologue
T1 construct: also called rat mesothelin
T1 sequence (target, looked up): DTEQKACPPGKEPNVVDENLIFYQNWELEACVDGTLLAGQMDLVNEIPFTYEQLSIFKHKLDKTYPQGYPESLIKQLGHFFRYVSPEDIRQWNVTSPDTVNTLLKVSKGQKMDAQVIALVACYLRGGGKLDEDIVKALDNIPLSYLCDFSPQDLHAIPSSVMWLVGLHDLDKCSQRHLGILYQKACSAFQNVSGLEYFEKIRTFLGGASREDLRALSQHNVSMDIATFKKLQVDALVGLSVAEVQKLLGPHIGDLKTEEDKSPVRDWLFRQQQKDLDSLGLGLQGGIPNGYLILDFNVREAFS
Description: (§1) FACs assays were performed by incubating hybridoma supernatants with 10,000 to 25,000 cells in PBS/2% Fetal bovine serum/2 mM Calcium Chloride at 4° C. for one hour followed by two washes with PBS/2% Fetal bovine serum/2 mM Calcium Chloride. Cells were then treated with florochrome-labeled secondary antibodies at 4° C. followed by one wash. The cells were resuspended in 50 μl of PBS/2% FBS and antibody binding was analyzed using a FACSCalibur™ instrument.

[2] = biological target: T2, Mouse MSLN (Mus musculus, UniProt Q61468); test: as above
T2 construct: also called murine mesothelin
T2 sequence (target, looked up): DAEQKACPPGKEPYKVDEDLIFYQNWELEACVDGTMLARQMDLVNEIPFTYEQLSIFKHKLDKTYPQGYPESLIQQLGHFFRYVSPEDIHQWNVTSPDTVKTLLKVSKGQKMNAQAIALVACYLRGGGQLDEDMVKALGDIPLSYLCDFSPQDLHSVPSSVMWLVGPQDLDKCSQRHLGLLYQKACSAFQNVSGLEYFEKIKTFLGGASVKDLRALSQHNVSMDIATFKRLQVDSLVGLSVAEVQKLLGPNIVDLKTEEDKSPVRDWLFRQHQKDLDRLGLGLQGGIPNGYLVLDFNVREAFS
Description: as §1

- binding result [1]: binds
- binding result [2]: binds
B1: Ab237 (Hu-anti-huMesothelin-2.37-IgG1) (antibody, V domains shown)
VH: QVQLQESGPGLVKPSQTLSLTCTVSGGSINNNNYYWTWIRQHPGKGLEWIGYIYYSGSTFYNPSLKSRVTISVDTSKTQFSLKLSSVTAADTAVYYCAREDTMTGLDVWGQGTTVTVSS
VL: DIQMTQSPSSLSASVGDRVTITCRASQSINNYLNWYQQKPGKAPTLLIYAASSLQSGVPSRFSGSRSGTDFTLTISSLQPEDFAAYFCQQTYSNPTFGQGTKVEVK
notes: Fully human antibody from XenoMouse; Only the variable domains are tied to Ab237

- binding result [2]: no binding
B2: 158.3 (antibody, V domains shown)
VH: QVQLQESGPGLVKPSETLSLTCTVSGGSIISHYWSWIRQPPGKGLEWIGYIYYSGSTNYNPSLKSRVTISVDTSKNQFSLKLTSVTAADTAVYYCARDGWSAFDYWGQGTLVTVSS
VL: DIQMTQSPSSLSASVGDRVTITCRASQGIRNALGWYQQKPGKAPKRLIYAASSLQSGVPSRFSGSGSGTEFTLTISSLQPEDFATYYCLQHNSYPRTFGQGTKVEIRR
notes: also called 1.58.3 g1; 1.58.3 g2

- binding result [2]: no binding
B3: 151 (antibody, V domains shown)
VH: B2 VH with I30S, H32Y, T83S, D98V, G99D, W100Y, S101K, Y105I, L111M
VL: DIQMTQSPSSLSASVGDRVTITCRASQGIRNDLHWYQQKPGKAPKRLIYAASSLQSGVPSRFSGSGSGTEFTLTISSLQPEDFATYYCLQHYSYPWTFGQGTKVEIK
notes: also called Ab1.51
